According to publication PMC5264208, “Transitional changes in the CRP structure lead to the exposure of proinflammatory binding sites” (Nature Communications, 2017):

What was measured:
[1] = target: T1, Alexa Fluor 488-labelled C1q (human, UniProt P02745 23-245; P02746 28-253; P02747 29-245, Alexa Fluor 488 (site and chain not stated) | Alexa Fluor 488 (site and chain not stated) | Alexa Fluor 488 (site and chain not stated)); test: real-time fluorescence binding (LigandTracer); THP-1 microvesicles (0.5 mg/ml) spotted on nitrocellulose, blocked with 5% BSA; Alexa Fluor 488-labelled C1q added with or without pCRP; conditions: both partners purified
T1 construct: Complement C1q subcomponent subunit A, human; Complement C1q subcomponent subunit B, human; Complement C1q subcomponent subunit C, human; Same protein as m3 with a fluorescent label; source: labelled with Alexa Fluor 488; copies: 6 + 6 + 6

[2] = target: T2, human complement factor 1q (human, UniProt P02745 23-245; P02746 28-253; P02747 29-245); test: real-time fluorescence binding (LigandTracer); human C1q (60 ug/ml) spotted on nitrocellulose; CMFDA-labelled THP-1 microvesicles preincubated 2 h at 37 °C with pCRP or mCRP (100 ug/ml) and added at 20 ug/ml; the read-out is the fluorescence of the microvesicles that carry the CRP; conditions: both partners purified
T2 construct: Complement C1q subcomponent subunit A, human; Complement C1q subcomponent subunit B, human; Complement C1q subcomponent subunit C, human; also called C1q; complement C1q; source: bought: Merck Chemicals GmbH; copies: 6 + 6 + 6
T2 sequence (P02745 23-245, chain 1 of 3): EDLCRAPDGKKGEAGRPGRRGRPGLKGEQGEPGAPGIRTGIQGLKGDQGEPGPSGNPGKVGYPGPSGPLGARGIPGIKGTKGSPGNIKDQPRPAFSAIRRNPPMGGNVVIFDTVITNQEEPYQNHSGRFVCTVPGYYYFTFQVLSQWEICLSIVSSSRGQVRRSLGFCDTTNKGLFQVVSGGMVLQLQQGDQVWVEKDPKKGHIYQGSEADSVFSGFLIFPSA
T2 sequence (P02746 28-253, chain 2 of 3): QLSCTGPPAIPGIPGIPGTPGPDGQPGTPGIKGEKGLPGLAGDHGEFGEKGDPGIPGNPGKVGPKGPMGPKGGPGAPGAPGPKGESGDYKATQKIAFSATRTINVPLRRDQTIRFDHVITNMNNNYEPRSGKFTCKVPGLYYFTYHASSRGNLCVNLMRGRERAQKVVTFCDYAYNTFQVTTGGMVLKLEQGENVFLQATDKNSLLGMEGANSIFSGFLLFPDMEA
T2 sequence (P02747 29-245, chain 3 of 3): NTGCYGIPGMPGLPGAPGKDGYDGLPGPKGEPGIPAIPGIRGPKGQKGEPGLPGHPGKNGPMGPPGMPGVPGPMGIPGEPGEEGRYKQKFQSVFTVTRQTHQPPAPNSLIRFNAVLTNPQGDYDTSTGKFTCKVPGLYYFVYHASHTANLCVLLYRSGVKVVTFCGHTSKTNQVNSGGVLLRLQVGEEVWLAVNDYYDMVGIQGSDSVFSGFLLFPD

T1 sequence (P02745 23-245, chain 1 of 3): as the sequence (P02745 23-245, chain 1 of 3) above
T1 sequence (P02746 28-253, chain 2 of 3): as the sequence (P02746 28-253, chain 2 of 3) above
T1 sequence (P02747 29-245, chain 3 of 3): as the sequence (P02747 29-245, chain 3 of 3) above

binding result [1]: binds
binding result [2]: binds
B1: pentameric C-reactive protein (natural protein, human, UniProt P02741 19-224, looked up)
chain: QTDMSRKAFVFPKESDTSYVSLKAPLTKPLKAFTVCLHFYTELSSTRGYSIFSYATKRQDNEILIFWSKDIGYSFTVGGSEILFEVPEVTVAPVHICTSWESASGIVEFWVDGKPRVRKSLKKGYTVGAEASIILGQEQDSFGGNFEGSQSLVGDIGNVNMWDFVLSPDEINTIYLGGPFSPNVLNWRALKYEVQGEVFTKPQLWP
notes: C-reactive protein, human; five identical subunits of about 23 kDa; also called pCRP; CRP; source: bought: Calbiochem; dialysed against D-PBS with 2 mM Ca2+
